Test results as given in patent US9482669B2, “Crystal structure of the NanR and ManNAc-6P complex, and uses thereof” (priority 2013, dated 2016).
Residue numbers refer to the chain shown, from its start. Numbers in names are those of the source.

What was measured:
[1] = system: nanTp-nanE intergenic region; test: EMSA of NanR with nanTp-nanE intergenic region; assay type: binding, Vibrio vulnificus; details: for DNA binding in EMSA: wild-type or mutant NanR
Protocol: (§1) Purified His-NanR protein was used to raise a primary polyclonal antibody by immunizing European rabbits (Oryctolagus curiculus). First, after one primary injection containing 500 μg of protein, three boosters containing 200 μg of protein was performed at 2-week intervals. Western blotting, EMSA and DNaseI footprinting assays were performed according to typical procedures known in the art.
NanR represses both nan T(PSL)AR and nanEK nagA operons by binding to an operator within the nanTp-nanE intergenic region. To examine the role of R57 and R60 residues in DNA binding, EMSA (electrophoretic gel mobility shift assays), in which the nanTp-nanE intergenic region was incubated with wild-type or mutant NanR in the absence or presence of ManNAc-6P, were performed.
The importance of K188 and K199 residues on all to binding of NanR to DNA was assessed by EMSA. […] Furthermore, the mutants were much more susceptible to ManNAc-6P than wild-type NanR (FIG. 10). […] The transcriptional control region of nan operon interacts with the dimer via the positively charged residues in this space (FIGS. 7b and 7c).

[2] = system: 32P-labeled transcriptional control region of nan operon; test: DNaseI footprinting assay; assay type: binding, Vibrio vulnificus; details: 400 nM NanR, 0.1 mM or 1 mM ManNAc-6P
Protocol: as §1
(§2) Therefore, the present inventors hypothesized that binding of ManNAc-6P may alter the conformation of NanR and alleviate its interaction with the transcriptional control region of nan operon. In detail, a DNaseI footprinting assay using NanR protein and ^32P-labeled transcriptional control region of nan operon was performed.

[3] = molecular target: NanR-binding duplex DNA (transcriptional control region of nan operon); test: Isothermal titration calorimetry of NanR with NanR-binding duplex DNA; parameters: species or system Vibrio vulnificus; details: for Kd: ITC at 25° C., 0.48 mM protein titrated against 0.03 mM DNA, read-out: dissociation constant (Kd) for target DNA
Protocol: NanR-binding duplex DNA (5′-[…] […]-3′, SEQ ID NO:15) was chemically synthesized. NanR was dialyzed extensively against Tris buffer (50 mM Tris-HCl, pH 7.0; 300 mM NaCl) and the DNA was diluted to 0.03 mM in the same buffer. Protein and DNA samples were degassed by vacuum aspiration for 20 minutes prior to loading and titration was carried out at 25° C. The NanR dimer in the syringe (0.48 mM) was titrated against the 0.03 mM DNA sample in the reaction cell. Analysis of the interaction between the NanR/ManNAc-6P complex and the DNA sample was performed using 0.48 mM of complex and 0.03 mM of DNA. The calorimetric assays were performed using a VP-ITC (MicroCal Inc., Northampton, Mass.). The stirring speed was 300 rpm and the thermal power was recorded every 10 seconds. Data were processed and plotted using the Origin program (version 7) supplied with the instrument.
as §2

PnanTp = test: E. coli dual plasmid system (luciferase reporter fused to PnanTp); assay type: cell-based; details: for repressive effect of NanR on activity of PnanTp: point mutations in DBD
Protocol: E. coli strains were co-transformed with a luciferase reporter plasmid (pBS0915) and one of the pNB-series of plasmids that express NanR. Cells were cultured overnight and then diluted into the appropriate fresh media (supplemented M9 in FIG. 3; LB in FIG. 4) containing arabinose (0.002%), and incubated at 37° C. until cells grew to early exponential phase. Relative luminescence unit (RLU) was calculated by dividing the luminescence by the A600, as described previously. For screening ligand-sensing residues, the BSE1201 strain (ΔaraBAD ΔnanE) was used as the host cell instead of DH5α to ensure that the arabinose was not used as a carbon source and that ManNAc-6P generated from Neu5Ac was accumulated in the cell.
To assess the importance of the interaction between ManNAc-6P and NanR to regulation of the nan genes, the residues involved in ligand-binding were mutated and the impact on NanR function was investigated using an E. coli dual plasmid system. Cells were cotransformed with plasmids containing a luciferase reporter gene fused to the NanR-binding nanT(PSL)AR promoter (PnanTp), and wild-type or mutant NanR, and then incubated in the presence of arabinose and the presence or absence of Neu5Ac.
The simplest helix-turn-helix (HTH)-containing DBD includes three core helices; the HTH domains can form tetra-helical bundle, winged helix, and ribbon-helix-helix type configurations. The DBD of NanR is composed of a six-helix bundle, which is not the archetypal conformation of HTH-containing domains; therefore, the recognition helix required for DNA-binding could not been determined. […] The importance of these residues to DNA-binding was examined using an E. coli dual plasmid system described in Example 2. The repressive effect of wild-type NanR on activity of PnanTp was abolished by the R57A, R57L, R60A, and R60L point mutations (FIG. 4c).

PnanE = test: In vitro transcription assay; assay type: biochemical, Vibrio vulnificus; details: 100 nM NanR protein, presence or absence of 1 mM ManNAc-6P
Protocol: In vitro transcription assays with wild-type or mutant NanR proteins were performed according to procedures described previously. RNA extraction, cDNA synthesis, and real time PCR amplification of the cDNA were performed as described previously.

Molecule: CC(=O)N[C@@H]1C(O)O[C@H](COP(=O)(O)O)[C@@H](O)[C@@H]1O (stereo partly shown) [ManNAc-6P, N-acetylmannosamine 6-phosphate]
- effect of ManNAc-6P on DNA migration in EMSA ([1]; addition of ManNAc-6P): retardation of DNA migration
- effect of ManNAc-6P on DNaseI protection by NanR [2]: cleavage bands at the center of the NanR-binding site disappeared

B1: NanR complexed with ManNAc-6P: complex formed by interaction between NanR protein and ManNAc-6P (protein, UniProt P0A8W0 1-263, looked up)
HTH-type transcriptional …: MGLMNAFDSQTEDSSPAIGRNLRSRPLARKKLSEMVEEELEQMIRRREFGEGEQLPSERELMAFFNVGRPSVREALAALKRKGLVQINNGERARVSRPSADTIIGELSGMAKDFLSHPGGIAHFEQLRLFFESSLVRYAAEHATDEQIDLLAKALEINSQSLDNNAAFIRSDVDFHRVLAEIPGNPIFMAIHVALLDWLIAARPTVTDQALHEHNNVSYQQHIAIVDAIRRHDPDEADRALQSHLNSVSATWHAFGQTTNKKK
modifications: complexed with ManNAc-6P
- Kd [3]: 186 µM
- reduction of interaction affinity for DNA versus NanR dimer ([3]; NanR complexed with ManNAc-6P): 130 fold

B2: NanR dimer: V. vulnificus transcriptional repressor of the nan operon, SEQ ID NO. 1 (protein, listed as Vibrio vulnificus)
chain: MGSPKNLLVRLRSNMEPFSKKLRVVADYILENAHDVQFQTITDLARNTQTSEATVVRLCRDMGYKGYSDFRMALAVDLSQTESRQQNHIEGDICDVSAQSAVDSLQDTAKLIDRKSLARIVERVHQAEFIGCIGVGASSIVGRYLAYRLIRIGKKAIMFEDTHLAAMSASRSSQGDLWFAVSSSGSTKEVIHAAGLAYKRDIPVVSLTNINHSPLSSLSTEMLVAARPEGPLTGGAFASKVGALLLVDVLVNSLLESYPEYKDSVQETAEVVIPLMAN
modifications: homodimer
- Kd [3]: 1.4 µM
- luciferase activity (PnanTp) after addition of Neu5Ac (PnanTp; BSE1201 host, arabinose, presence or absence of Neu5Ac): increased following addition of Neu5Ac

B3: R60A: modified NanR protein, Arg60 substituted with alanine (protein)
chain: B2 chain with R60A
- repressive effect of NanR on activity of PnanTp (PnanTp): abolished
- DNA binding in EMSA [1]: No DNA migration was detected
- repression of PnanE transcription (PnanE): did not repress PnanE

B4: K199L (protein)
chain: B2 chain with K199L
- DNA binding in EMSA [1]: not as conspicuous as that of wild-type NanR

B5: K188A (protein)
chain: B2 chain with K188A
- DNA binding in EMSA [1]: not as conspicuous as that of wild-type NanR

B6: K188L (protein)
chain: B2 chain with K188L
- DNA binding in EMSA [1]: not as conspicuous as that of wild-type NanR

B7: R57A: modified NanR protein, Arg57 substituted with alanine (protein)
chain: B2 chain with R57A
- repressive effect of NanR on activity of PnanTp (PnanTp): abolished
- DNA binding in EMSA [1]: No DNA migration was detected
- repression of PnanE transcription (PnanE): did not repress PnanE

B8: K199A (protein)
chain: B2 chain with K199A
- DNA binding in EMSA [1]: not as conspicuous as that of wild-type NanR
